Experimental findings from patent US20230250147A1, “GLP-1R AGONISTIC PEPTIDES WITH REDUCED ACTIVITY” (SANOFI, priority 2020, published 2023) are described below.

Marks after values point to notes of the source that are not given here. No end group written: not given here.

In one data set the target is T1, Human GLP-1R (Homo sapiens, UniProt P43220).
T1 construct: expressed in transfected cells; host or cells: HEK-293
Briefly: HTRF cAMP assay in HEK-293 cells, human GLP-1R. Type of data set: cell-based. As for the experimental part: (§1) Recombinant HEK-293 cells were grown in T175 culture flasks placed at 37° C. to near confluence in medium (DMEM with 10% FBS) and collected in 2 mL vials in cell culture medium containing 10% DMSO in concentrations of 1-5×10^7 cells/mL. Each vial contained 1.8 mL cell suspension. The vials were slowly frozen to −80° C. in an isopropanol chamber, and then transferred to liquid nitrogen for long term storage.
(§2) Prior to their use, frozen cells were thawed quickly at 37° C., washed with 20 mL cell buffer (1×HBSS; 20 mM HEPES, 0.1% BSA) and centrifuged for 5 minutes at 900 rpm. Cells were resuspended in assay buffer (cell buffer plus 2 mM IBMX) and adjusted to a cell density of 1×10^6 cells/mL. For measurement, 5 μL cell suspension (final 5×10^3 cells/well) and 5 μL of test compound were added to a well of a 384-well plate, followed by incubation for 30 minutes at room temperature. […] The cAMP content of cells was determined using a kit from Cisbio Corp. (cat. no. 62AM4PEC) based on Homogenous Time Resolved Fluorescence (HTRF).

The target of another data set is T2, Mouse GLP-1R (Mus musculus, UniProt O35659).
T2 construct: expressed in transfected cells; host or cells: HEK-293
T2 sequence (O35659 22-463): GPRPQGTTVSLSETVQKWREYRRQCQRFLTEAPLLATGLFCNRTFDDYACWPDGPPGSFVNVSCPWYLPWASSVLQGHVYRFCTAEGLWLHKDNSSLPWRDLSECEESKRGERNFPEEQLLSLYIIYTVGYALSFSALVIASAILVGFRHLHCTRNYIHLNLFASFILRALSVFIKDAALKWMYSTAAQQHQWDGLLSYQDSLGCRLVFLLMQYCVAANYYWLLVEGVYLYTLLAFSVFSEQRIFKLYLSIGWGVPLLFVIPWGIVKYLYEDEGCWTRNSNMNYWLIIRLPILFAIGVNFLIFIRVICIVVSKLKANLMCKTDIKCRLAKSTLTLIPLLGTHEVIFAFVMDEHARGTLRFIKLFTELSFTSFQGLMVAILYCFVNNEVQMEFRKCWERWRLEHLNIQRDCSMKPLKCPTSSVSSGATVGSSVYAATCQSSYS
In words: HTRF cAMP assay in HEK-293 cells, mouse GLP-1R. Type of data set: cell-based. As for the experimental part:
as §1, §2

The target of a further data set is T3, Monkey GLP-1R (Macaca fascicularis, UniProt F8V479).
T3 construct: expressed in transfected cells; host or cells: HEK-293
T3 sequence (F8V479 24-463): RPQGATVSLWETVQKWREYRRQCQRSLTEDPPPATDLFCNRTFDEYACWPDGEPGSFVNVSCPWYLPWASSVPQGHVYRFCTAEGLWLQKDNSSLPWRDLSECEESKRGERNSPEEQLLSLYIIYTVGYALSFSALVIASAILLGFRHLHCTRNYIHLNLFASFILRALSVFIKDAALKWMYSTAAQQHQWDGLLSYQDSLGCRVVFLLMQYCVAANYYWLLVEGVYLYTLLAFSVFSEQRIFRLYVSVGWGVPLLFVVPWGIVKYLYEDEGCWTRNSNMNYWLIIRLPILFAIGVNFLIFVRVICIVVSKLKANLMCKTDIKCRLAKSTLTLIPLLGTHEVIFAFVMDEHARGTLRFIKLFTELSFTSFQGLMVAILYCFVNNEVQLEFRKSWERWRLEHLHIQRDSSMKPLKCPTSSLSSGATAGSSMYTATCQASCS
Briefly: HTRF cAMP assay in HEK-293 cells, monkey GLP-1R. Type of data set: cell-based. As to the method:
as §1, §2

Data set [1] deals with T4, human FGFR1c together with human beta-Klotho (KLB) (human, UniProt P11362 22-822; Q86Z14 1-1044). Briefly: cell-based or functional assay.
T4 sequence (P11362 22-822, chain 1 of 2): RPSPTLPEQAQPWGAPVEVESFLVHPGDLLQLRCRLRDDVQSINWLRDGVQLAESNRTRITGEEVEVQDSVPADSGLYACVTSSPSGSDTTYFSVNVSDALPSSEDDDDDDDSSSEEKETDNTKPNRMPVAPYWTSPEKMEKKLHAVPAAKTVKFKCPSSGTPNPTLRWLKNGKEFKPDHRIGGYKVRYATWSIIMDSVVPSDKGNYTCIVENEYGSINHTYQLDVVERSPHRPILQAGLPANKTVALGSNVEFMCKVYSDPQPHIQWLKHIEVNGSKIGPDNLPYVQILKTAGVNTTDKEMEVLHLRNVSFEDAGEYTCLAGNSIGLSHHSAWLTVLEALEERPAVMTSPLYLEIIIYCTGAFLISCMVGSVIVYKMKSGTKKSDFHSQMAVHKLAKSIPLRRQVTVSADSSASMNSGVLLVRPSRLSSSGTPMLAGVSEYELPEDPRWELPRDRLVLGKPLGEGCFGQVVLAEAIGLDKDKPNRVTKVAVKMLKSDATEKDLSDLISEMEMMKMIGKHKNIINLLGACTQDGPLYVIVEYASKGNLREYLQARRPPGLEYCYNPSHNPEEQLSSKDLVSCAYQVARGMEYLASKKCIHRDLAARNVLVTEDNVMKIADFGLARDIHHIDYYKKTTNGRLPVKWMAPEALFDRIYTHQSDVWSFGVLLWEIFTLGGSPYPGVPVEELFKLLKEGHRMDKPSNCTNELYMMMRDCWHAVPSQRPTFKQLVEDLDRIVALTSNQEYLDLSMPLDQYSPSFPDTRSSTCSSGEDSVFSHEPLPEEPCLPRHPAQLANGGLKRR
T4 sequence (Q86Z14 whole entry, chain 2 of 2): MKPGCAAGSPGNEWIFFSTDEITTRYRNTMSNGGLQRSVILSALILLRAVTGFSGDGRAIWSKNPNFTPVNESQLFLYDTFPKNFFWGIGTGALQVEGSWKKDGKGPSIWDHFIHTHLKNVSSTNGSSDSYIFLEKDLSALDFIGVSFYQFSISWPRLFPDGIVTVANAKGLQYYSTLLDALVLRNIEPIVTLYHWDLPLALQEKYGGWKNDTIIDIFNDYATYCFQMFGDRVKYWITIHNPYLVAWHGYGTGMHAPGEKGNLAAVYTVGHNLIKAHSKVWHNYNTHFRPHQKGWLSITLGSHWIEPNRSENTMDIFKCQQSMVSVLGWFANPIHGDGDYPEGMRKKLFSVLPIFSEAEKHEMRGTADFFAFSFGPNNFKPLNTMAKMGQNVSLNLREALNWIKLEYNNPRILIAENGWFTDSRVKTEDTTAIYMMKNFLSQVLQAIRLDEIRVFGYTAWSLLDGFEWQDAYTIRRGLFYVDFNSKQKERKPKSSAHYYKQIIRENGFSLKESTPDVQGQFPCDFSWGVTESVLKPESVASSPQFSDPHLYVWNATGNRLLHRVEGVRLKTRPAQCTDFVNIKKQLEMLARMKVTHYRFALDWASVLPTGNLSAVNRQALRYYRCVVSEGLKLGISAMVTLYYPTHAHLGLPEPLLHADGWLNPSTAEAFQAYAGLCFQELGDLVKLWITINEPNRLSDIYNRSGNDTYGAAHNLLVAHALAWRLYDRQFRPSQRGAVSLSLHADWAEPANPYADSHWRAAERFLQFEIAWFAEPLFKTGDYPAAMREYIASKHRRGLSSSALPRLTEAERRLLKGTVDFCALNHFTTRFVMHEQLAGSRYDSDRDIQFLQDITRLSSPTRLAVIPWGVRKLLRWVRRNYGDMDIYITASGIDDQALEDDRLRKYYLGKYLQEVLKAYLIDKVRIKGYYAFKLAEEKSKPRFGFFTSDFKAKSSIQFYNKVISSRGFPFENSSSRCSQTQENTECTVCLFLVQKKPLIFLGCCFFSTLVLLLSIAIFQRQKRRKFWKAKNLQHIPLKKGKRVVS
Data set [2] deals with T4, human FGFR1c together with human …. In words: cell-based or functional assay. This is another data set of the same source.
The nature of data set [3]: Thermal shift assay (DSF, Sypro Orange). The data set is classed as physicochemical. The settings on record: Data generated via DSF. An excerpt: In addition, for some proteins a thermal shift assay was applied to analyze thermostability in imitation of differential scanning fluorimetry (DSF or ThermoFluor™) assays (Ahmad S. et al. (2012) Protein Science 21: 433-446; Pantoliano et al. (2001) J. Biomol. Screen 6: 429-440; Niesen et al. (2007) Nat. Protoc. 2: 2212-21). This assay is based on the observation that hydrophobic fluorescent dyes, such as Sypro™ Orange (Life Technologies, cat. No. S6651), increase their fluorescence when they bind to hydrophobic patches on a protein.
Proteins were tested by mixing a solution of each protein in PBS (Gibco) with a 160× solution of Sypro™Orange (diluted in water from a 5000×DMSO stock as provided by the supplier). The sample volume was adjusted to 20 μL with PBS. Typical conditions contained 0.8 mg/mL protein and 8× Sypro™Orange in the final mixture, but protein concentrations could be varied between 0.4 mg/mL and 1.2 mg/mL. Samples were dispensed in 96-well PCR plates (BioRad Semi-Skirt 96 white) and shortly centrifuged to remove air bubbles. […] For excitation and quantification of fluorescence, filters for wavelengths of 485 nm and 575 nm were chosen. […] In curves of fluorescence intensity against temperature, the inflection point was chosen as the measure for the melting temperature (Tm).

The nature of data set [4]: Pharmacokinetics after single subcutaneous administration in mouse. Type of data set: in vivo, female C57BI/6 mice. As to conditions: FGF21 intact assay; 0.3 mg/kg subcutaneous. As for the experimental part:
Plasma concentrations and pharmacokinetic parameters of GLP-1 RA/FGF21 Fc fusion proteins were determined after single subcutaneous administration of 0.3 mg/kg in solution to female C57BI/6 mice or male Cynomolgus monkeys using three different methods. Blood samples were obtained at time points from 30 minutes to 168 hours after dosing. […]
a.) Bioanalytical Screening Method for Quantification of the Intact FGF21 Part of the GLP-1 RA/FGF21 Fc Fusion Proteins Plasma samples were analyzed for the intact FGF21 part of the fusion proteins with an ELISA kit (F1231-K01, Eagle Biosciences, USA). […] For the detection of this immunocomplex, the well was then incubated with a substrate solution in a timed reaction and then measured in a spectrophotometric microplate reader. […]
b.) Bioanalytical Screening Method for Quantification of the Intact Full-Length Fusions Proteins The concentration of the full-length GLP-1RA/FGF21 Fc fusion proteins in plasma were determined utilizing an ELISA method. […] Following washing 3 times with 300 μL PBS-T 150 μL read buffer was added to the wells. […]
c.) Bioanalytical Screening Method for Quantification of the Intact GLP-1 Part of the GLP-1 FGF21 Fc Fusion Proteins Plasma samples were analyzed for the intact GLP-1 part of the fusion proteins with a GLP-1 ELISA method. […]

T1 sequence (P43220 24-463): as the sequence (F8V479 24-463) above, with N112S, S120F, G202S, V205L, F237L, R241W, V249I counted along it

For “GHGEGTFTSDKSKQLEEEAVRLFIEWLKAGGPKKIRYS-NH2 [compound 278]”, the results for the EC50 at Human GLP-1R, on Mouse GLP-1R and on Monkey GLP-1R were 10.5 pM, 7.65 pM and 5.74 pM, respectively.

B1: G-FGF21 (mature human wild-type FGF21 with an additional N-terminal Gly) (ligand)
chain: GHPIPDSSPLLQFGGQVRQRYLYTDDAQQTEAHLEIREDGTVGGAADQSPESLLQLKALKPGVIQILGVKTSRFLCQRPDGALYGSLHFDPEACSFRELLLEDGYNVYQSEAHGLPLHLPGNKSPHRDPAPRGPARFLPLPGLPPAPPEPPGILAPQPPDVGSSDPLSMVGPSQGRSPSYAS
On to B1, for which, in data set [1], the “pFGFR ICW EC50” value is 4.49 nmol/L. In addition, the “pERK ICW EC50” value in data set [2] amounted to 0.17 nmol/L.

B2: 252 (protein)
chain: GHPIPDSSPLLQFGGQVRQRYLYTDDAQQTEAHLEIREDGTVGGAADQSPESLLQLKALKPGVIQILGVKTSRFLCQRPDGALYGSLHFDPEACSFRELLLEDGYNVYQSEAHGLPLHLPGNKSPHRDPAPRGPARFLPLPGLPPAPPEPPGILAPQPPDVGSSDPLSMVGPSQGRSPSYAS
modifications: G-FGF21
For B2, the “Tm (melting temperature)” value in data set [3] is 43.1* ° C. For the same molecule, in data set [4], the t1/2 mouse came out at 42 min.
